Data published in the supplement of paper PMC7125110.
± gives the standard error. Variants at the floor of the assay were thinned out.

B1: glmS ribozyme (parent)
chain: AUAAAAGCGCCAGAACUACAGAAAUGUAGUUGACGAGGAGGAGGUUUAUCGAAUUUUCGGCGGAUGCCUCCAAA

Assays:
Conditions in all cases: with glucosamine-6-phosphate
[1] = variants of: B1; assay: self-cleavage kobs at 40 uM GlcN6P; higher = faster cleavage; RNA array
Summary of the method: (§1)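 Using a hybridised Cy3 probe at 37 °C, barcoded ribozyme variants transcribed in situ by E. coli RNA polymerase on sequenced MiSeq chips were monitored across tiles imaged over ~14 h. The flow contained glucosamine-6-phosphate from 40 μM to 10 mM in HEPES/KCl/Mg(OAc)2 buffer. Signals were normalised to baseline and to non-cleaving reference variants before per-tile medians were fit to one- or two-exponential decays to yield kobs. Weighted Michaelis–Menten fits across concentrations gave kcat and KM.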

[2] = variants of: B1; assay: self-cleavage kobs at 2500 uM GlcN6P; higher = faster cleavage; RNA array
Summary of the method: as §1

[3] = variants of: B1; assay: self-cleavage kobs at 10000 uM GlcN6P; higher = faster cleavage; RNA array
Summary of the method: as §1

[4] = variants of: B1; assay: self-cleavage kobs at 160 uM GlcN6P; higher = faster cleavage; RNA array
Summary of the method: as §1

[5] = variants of: B1; assay: self-cleavage kobs at 640 uM GlcN6P; higher = faster cleavage; RNA array
Summary of the method: as §1

| Variant | self-cleavage kobs at 40 uM GlcN6P [1] [s⁻¹] | self-cleavage kobs at 2500 uM GlcN6P [2] [s⁻¹] | self-cleavage kobs at 10000 uM GlcN6P [3] [s⁻¹] | self-cleavage kobs at 160 uM GlcN6P [4] [s⁻¹] | self-cleavage kobs at 640 uM GlcN6P [5] [s⁻¹] |
| --- | --- | --- | --- | --- | --- |
| C8U A12U A33C G59U C67G U69G | < 1e-05 | < 1e-05 | < 1e-05 | – | – |
| G7U G29C G43U G51A | < 1e-05 | – | < 1e-05 | – | – |
| G9A A14G U30A | < 1e-05 | – | 4.06e-05 ± 1.5e-05 | < 1e-05 | < 1e-05 |
| G9A C50A U56C C67A | < 1e-05 | < 1e-05 | – | – | < 1e-05 |
| C8A C11G U46G | < 1e-05 | – | < 1e-05 | – | – |
| G7U U49A A52C G60C C61U | < 1e-05 | < 1e-05 | < 1e-05 | – | < 1e-05 |
| G7U U31A | < 1e-05 | < 1e-05 | < 1e-05 | < 1e-05 | < 1e-05 |
| C8G C11G U30C C34G G44U G62A | < 1e-05 | – | < 1e-05 | – | – |
| C8G A15U G62C | < 1e-05 | – | – | – | < 1e-05 |
| C8G G32C G62U | < 1e-05 | – | < 1e-05 | – | – |
| C8G G59U | < 1e-05 | < 1e-05 | – | < 1e-05 | < 1e-05 |
| C8U G38U A39C C58A | < 1e-05 | – | – | – | – |
| G7U U56A | < 1e-05 | – | < 1e-05 | < 1e-05 | < 1e-05 |
| C8A A12U A39G | < 1e-05 | – | < 1e-05 | – | < 1e-05 |
| C8A U45A A53U | < 1e-05 | – | – | – | – |
| C8U A42G | < 1e-05 | – | < 1e-05 | < 1e-05 | – |
| C8U A42C | < 1e-05 | < 1e-05 | < 1e-05 | < 1e-05 | < 1e-05 |
| C8U G9A C50G C67U | 6.37e-05 ± 1.7e-05 | 0.000169 ± 4.6e-05 | 6.88e-05 ± 1.6e-05 | – | – |
| G7U C70G C71G | 4.02e-05 ± 2e-05 | – | – | – | 0.000251 ± 8.1e-05 |
| G9A G38C | < 1e-05 | – | – | < 1e-05 | < 1e-05 |
| G9A G38A | < 1e-05 | – | < 1e-05 | – | – |
| C8G A39C | < 1e-05 | < 1e-05 | < 1e-05 | < 1e-05 | < 1e-05 |

| Variant | self-cleavage kobs at 40 uM GlcN6P [1] [s⁻¹] | self-cleavage kobs at 2500 uM GlcN6P [2] [s⁻¹] | self-cleavage kobs at 10000 uM GlcN6P [3] [s⁻¹] | self-cleavage kobs at 160 uM GlcN6P [4] [s⁻¹] | self-cleavage kobs at 640 uM GlcN6P [5] [s⁻¹] |
| --- | --- | --- | --- | --- | --- |
| C8U A14G | < 1e-05 | < 1e-05 | – | < 1e-05 | – |
| G7U U31G G62A | < 1e-05 | < 1e-05 | < 1e-05 | – | – |
| G9A G13U C50G U57A | 0.000665 ± 0.00023 | – | 9.79e-05 ± 2e-05 | – | – |
| G7U C58A C67G C70U | 9.59e-05 ± 3.4e-05 | – | – | – | – |
| C8G G60C | < 1e-05 | – | < 1e-05 | < 1e-05 | – |
| C8A C11U A15U C50G U56A G63A | 5.94e-05 ± 2e-05 | 0.000104 ± 5.1e-05 | 0.00011 ± 2.4e-05 | – | – |
| C8U A39U | < 1e-05 | < 1e-05 | – | < 1e-05 | – |
| G7U G13U A53G | < 1e-05 | – | – | – | – |
| C8A A36U | < 1e-05 | < 1e-05 | < 1e-05 | < 1e-05 | < 1e-05 |
| G7U U31C G59U | < 1e-05 | – | – | – | – |
| C8U U30G | < 1e-05 | – | < 1e-05 | < 1e-05 | < 1e-05 |
| G9A A14C A48C | < 1e-05 | – | – | – | – |
| G7U G41U A48U | < 1e-05 | – | – | – | – |
| G7U G13A C67U | < 1e-05 | – | – | – | – |
| C8U C61U | < 1e-05 | < 1e-05 | < 1e-05 | < 1e-05 | < 1e-05 |
| G7U G32U | < 1e-05 | < 1e-05 | < 1e-05 | < 1e-05 | < 1e-05 |
| C8G U31C C71A | < 1e-05 | – | – | – | – |
| C8U G43A U56C | < 1e-05 | – | < 1e-05 | – | – |
| C8G C71A | < 1e-05 | < 1e-05 | – | < 1e-05 | < 1e-05 |
| C8G C71U | < 1e-05 | < 1e-05 | < 1e-05 | < 1e-05 | < 1e-05 |
| G9A C11G | < 1e-05 | < 1e-05 | < 1e-05 | < 1e-05 | < 1e-05 |
| C8U U65G | < 1e-05 | < 1e-05 | < 1e-05 | < 1e-05 | < 1e-05 |

| Variant | self-cleavage kobs at 40 uM GlcN6P [1] [s⁻¹] | self-cleavage kobs at 2500 uM GlcN6P [2] [s⁻¹] | self-cleavage kobs at 10000 uM GlcN6P [3] [s⁻¹] | self-cleavage kobs at 160 uM GlcN6P [4] [s⁻¹] | self-cleavage kobs at 640 uM GlcN6P [5] [s⁻¹] |
| --- | --- | --- | --- | --- | --- |
| G7U G9A A14U C50G | 0.000146 ± 5.4e-05 | 0.000647 ± 0.00016 | 0.000226 ± 5.3e-05 | 0.000138 ± 3.6e-05 | 0.000267 ± 5.8e-05 |
| C8A C11U | < 1e-05 | < 1e-05 | < 1e-05 | – | < 1e-05 |
| C8A C11G | < 1e-05 | < 1e-05 | < 1e-05 | < 1e-05 | < 1e-05 |
| G9A G13A | < 1e-05 | < 1e-05 | – | < 1e-05 | < 1e-05 |
| C8U G13C G51A | < 1e-05 | < 1e-05 | < 1e-05 | – | – |
| G7U U45G C71A | < 1e-05 | < 1e-05 | < 1e-05 | – | – |
| C8U A64U | < 1e-05 | < 1e-05 | < 1e-05 | < 1e-05 | < 1e-05 |
| C8U A64C | < 1e-05 | < 1e-05 | – | < 1e-05 | < 1e-05 |
| C8A A36U A64U C70U | < 1e-05 | < 1e-05 | – | – | < 1e-05 |
| G9A C10G C68U | < 1e-05 | – | – | – | – |
| C8A C34U U47C C67U | < 1e-05 | – | < 1e-05 | – | – |
| G7U U49A | < 1e-05 | < 1e-05 | < 1e-05 | < 1e-05 | < 1e-05 |
| C8G G32A G59U | < 1e-05 | < 1e-05 | < 1e-05 | – | – |
| C8G G43U | < 1e-05 | < 1e-05 | – | – | < 1e-05 |
| G9A C50G U65G G66C C70G | 5.55e-05 ± 2.4e-05 | – | 4.91e-05 ± 1.6e-05 | – | – |
| G7U G37C C61A C68G C70U | 0.000181 ± 5.8e-05 | – | 9.36e-05 ± 2.7e-05 | – | – |
| C8G G40A | < 1e-05 | < 1e-05 | < 1e-05 | < 1e-05 | – |
| C8G G40U | < 1e-05 | < 1e-05 | < 1e-05 | – | < 1e-05 |
| C8A G13A U47G G60U | < 1e-05 | – | – | – | – |
| C8A C58U | < 1e-05 | < 1e-05 | < 1e-05 | < 1e-05 | < 1e-05 |
| C8A C67U | < 1e-05 | – | < 1e-05 | < 1e-05 | < 1e-05 |
| C8G G41A | < 1e-05 | < 1e-05 | < 1e-05 | < 1e-05 | – |

| Variant | self-cleavage kobs at 40 uM GlcN6P [1] [s⁻¹] | self-cleavage kobs at 2500 uM GlcN6P [2] [s⁻¹] | self-cleavage kobs at 10000 uM GlcN6P [3] [s⁻¹] | self-cleavage kobs at 160 uM GlcN6P [4] [s⁻¹] | self-cleavage kobs at 640 uM GlcN6P [5] [s⁻¹] |
| --- | --- | --- | --- | --- | --- |
| C8A U31G | < 1e-05 | < 1e-05 | < 1e-05 | < 1e-05 | < 1e-05 |
| C8U G44C A52U C61A | < 1e-05 | < 1e-05 | < 1e-05 | – | – |
| G7U C50G C68G | 0.000115 ± 2e-05 | 0.000185 ± 6.6e-05 | 0.000186 ± 3.4e-05 | 0.000493 ± 0.00019 | – |
| C8G G32U C34A | < 1e-05 | – | – | – | – |
| C8A U46A | < 1e-05 | < 1e-05 | < 1e-05 | < 1e-05 | < 1e-05 |
| C8G C16G G41A U47A | < 1e-05 | < 1e-05 | < 1e-05 | – | < 1e-05 |
| C8U U47C | < 1e-05 | < 1e-05 | < 1e-05 | < 1e-05 | < 1e-05 |
| C8G U65C | < 1e-05 | < 1e-05 | – | < 1e-05 | < 1e-05 |
| C8G U31A G41C | < 1e-05 | – | – | – | – |
| C8U G35U A39U G43U | < 1e-05 | – | – | – | < 1e-05 |
| C8A U25C G37U U69G | 0.000134 ± 3.6e-05 | – | – | – | 0.000488 ± 0.00011 |
| G9A C71G | < 1e-05 | < 1e-05 | < 1e-05 | < 1e-05 | < 1e-05 |
| C8A A15U | < 1e-05 | < 1e-05 | < 1e-05 | < 1e-05 | < 1e-05 |
| C8G C10G C11U A33G U47C C70A C71A | < 1e-05 | – | – | – | – |
| G9A C16G A52U | < 1e-05 | – | < 1e-05 | – | – |
| C8U G51A A52G G63C | < 1e-05 | – | – | – | – |
| C8U A14U G29C U46A G51A | < 1e-05 | – | < 1e-05 | – | – |
| C8U G44U | < 1e-05 | < 1e-05 | < 1e-05 | < 1e-05 | < 1e-05 |
| C8U G44A | < 1e-05 | < 1e-05 | – | < 1e-05 | < 1e-05 |
